Reference: patent publication US20210269539A1 (NANJING UMAB BIOPHARMA, published 2021)
“And” between values parts separate entries of the source, which are not always exact repeats. Equal entries are not always repeated.

Experiments:
human OX40 on cells [1] = target: T1, human OX40 on cells (human, UniProt P43489 29-277); experiment: cell-based or functional assay
T1 sequence (looked up): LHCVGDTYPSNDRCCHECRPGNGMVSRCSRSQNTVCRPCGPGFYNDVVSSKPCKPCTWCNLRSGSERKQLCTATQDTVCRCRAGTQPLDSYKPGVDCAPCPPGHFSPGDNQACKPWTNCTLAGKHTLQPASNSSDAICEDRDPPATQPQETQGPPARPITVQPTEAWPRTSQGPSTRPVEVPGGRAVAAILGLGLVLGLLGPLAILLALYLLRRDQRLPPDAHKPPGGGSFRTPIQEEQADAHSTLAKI

mouse OX40 on CHO cells = target: T2, mouse OX40 on CHO cells (mouse, UniProt P47741 20-272); experiment: FACS on CHO cells expressing mouse OX40
T2 construct: whole, on cells; also called CHO-mOX40
T2 sequence (looked up): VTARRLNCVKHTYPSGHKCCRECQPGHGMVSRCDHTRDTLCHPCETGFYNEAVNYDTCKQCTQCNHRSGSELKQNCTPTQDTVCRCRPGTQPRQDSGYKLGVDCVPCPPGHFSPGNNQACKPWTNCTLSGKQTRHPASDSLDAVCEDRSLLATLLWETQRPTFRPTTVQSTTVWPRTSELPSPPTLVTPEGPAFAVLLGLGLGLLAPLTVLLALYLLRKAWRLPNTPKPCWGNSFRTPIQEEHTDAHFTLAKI

human OX40 protein [2] = target: T3, human OX40 protein (human, UniProt P43489 29-214, limits assumed); experiment: ELISA, protein coated at 1 µg/mL, goat anti-human IgG HRP
T3 construct: also called human OX antigen protein
T3 sequence (looked up): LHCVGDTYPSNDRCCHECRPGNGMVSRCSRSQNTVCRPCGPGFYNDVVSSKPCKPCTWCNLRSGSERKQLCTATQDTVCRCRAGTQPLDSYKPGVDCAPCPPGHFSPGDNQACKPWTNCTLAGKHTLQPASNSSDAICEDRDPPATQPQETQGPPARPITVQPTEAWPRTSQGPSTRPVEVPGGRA
Protocol: (§1) The next day, it was washed three times with 300 μL PBST (Tween 20: 0.5‰), then blocked with 5% BSA/PBS at 100 μL/well for 2 hours, and shaken at room temperature. After washing 3 times with 300 μL PBST, the gradient dilutions of samples were prepared with PBS, which were added into the 96-well plate at 100 μL/well and shaken at room temperature for 1 hour, and washed 3 times with 300 μL PBST. The secondary antibody goat anti-human IgG HRP solution was prepared, which was added into the 96-well plate at 100 μL/well, and shaken at room temperature for 1 hour. After washing 4 times with 300 μL PBST, TMB was added at 100 μL/well and developed for 20 min. 0.6N H₂SO4 was added at 100 μL/well to stop the development, and OD450 nm was measured.

human OX40 on cells [3] = target: T1, human OX40 on cells; experiment: FACS on CHO-hOX40 cells
Protocol: The OX40 antibody gradient was created with PBS, and a stock solution of 10× final concentration was prepared. CHO-hOX40 cells were collected, washed once with PBS, counted, and diluted to a cell suspension of 2×10⁶ cells/ml. 10 μl of OX40 antibody stock solutions were added into 100 μl of cell suspension, and incubated at 4° C. in the dark for 30 min. After washing twice with PBS, a secondary antibody was added and an incubation was carried out at 4° C. for 30 min in the dark. After washing once with PBS, the cells were suspended in 400 μl FACS buffer and measured on the instrument.

human OX40 protein [4] = target: T3, human OX40 protein; experiment: ELISA as in Example 3, human OX40 protein coated
Protocol: as §1
The in vitro binding assay of humanized antibodies and human OX antigen protein was carried out as described in Example 3.

B1: MT01-L1(M1) (antibody, human IgG1, kappa, V domains shown)
VH: EVQLQQSGPELVKPGASVKMSCKASGYTFTSYVMHWLKQKPGQGLEWIGYINPYNDATKYNEKFKGKAKLTSDKSSSTAYMELSSLTSEDSAVYYCANYYGSKFAMDYWGQGTSVTVSS
VL: DIQMTQTTSSLSASLGDRVTISCRASQDISNYLSWYQRKPDGAVKLLIYYTSRLHSGVPSRFSGSGSGADYSLTISNLEQEDIATYFCQQGITLPWTFGGGTKLEIKR
EC50 for activation of the NFκB-luciferase reporter gene (human OX40 on cells [1]): 0.0645 µg/mL

B2: MT01-L1(M2) (antibody, human IgG1, kappa, V domains shown)
VH: EVQLQQSGPELVKPGASVKMSCKASGYTFTSYVMHWLKQKPGQGLEWIGYINPYNDGTKYNEKFKGKAKLTSDKSSSTAYMELSSLTSEDSAVYYCANYYGSKFAMDYWGQGTSVTVSS
VL: DIQMTQTTSSLSASLGDRVTISCRASQDISNYLSWYQRKPDGAVKLLIYYTSRLHSGVPSRFSGSGSGADYSLTISNLEQEDIATYFCQQGITLPFTFGGGTKLEIKR
EC50 for activation of the NFκB-luciferase reporter gene (human OX40 on cells [1]): 0.06 µg/mL

B3: MT01-L1(M1/M2) (antibody, human IgG1, kappa, V domains shown)
VH: EVQLQQSGPELVKPGASVKMSCKASGYTFTSYVMHWLKQKPGQGLEWIGYINPYNDATKYNEKFKGKAKLTSDKSSSTAYMELSSLTSEDSAVYYCANYYGSKFAMDYWGQGTSVTVSS
VL: DIQMTQTTSSLSASLGDRVTISCRASQDISNYLSWYQRKPDGAVKLLIYYTSRLHSGVPSRFSGSGSGADYSLTISNLEQEDIATYFCQQGITLPFTFGGGTKLEIKR
EC50 for activation of the NFκB-luciferase reporter gene (human OX40 on cells [1]): 0.128 µg/mL

B4: MT01-L1 (antibody, human IgG1, kappa)
heavy: not shown
light: DIQMTQTTSSLSASLGDRVTISCRASQDISNYLSWYQRKPDGAVKLLIYYTSRLHSGVPSRFSGSGSGADYSLTISNLEQEDIATYFCQQGITLPWTFGGGTKLEIKRTVAAPSVFIFPPSDEQLKSGTASVVCLLNNFYPREAKVQWKVDNALQSGNSQESVTEQDSKDSTYSLSSTLTLSKADYEKHKVYACEVTHQGLSSPVTKSFNRGEC
notes: also called human-mouse chimeric monoclonal antibody MT01-L1
EC50 for activation of the NFκB-luciferase reporter gene (human OX40 on cells [1]): 0.0391 µg/mL and 0.0574 µg/mL | IC50 of inhibition of the OX40L-induced activation of NFkB signaling pathway in Jurkat cells (human OX40 on cells [1]): 0.686 µg/mL | binding result (mouse OX40 on CHO cells): no binding | EC50 (human OX40 protein [2]): 0.291 µg/mL | EC50 (human OX40 on cells [3]): 1.22 µg/mL

B5: MT01-L1(G2) (antibody, human IgG2, kappa)
heavy: EVQLQQSGPELVKPGASVKMSCKASGYTFTSYVMHWLKQKPGQGLEWIGYINPYNDGTKYNEKFKGKAKLTSDKSSSTAYMELSSLTSEDSAVYYCANYYGSKFAMDYWGQGTSVTVSSASTKGPSVFPLAPCSRSTSESTAALGCLVKDYFPEPVTVSWNSGALTSGVHTFPAVLQSSGLYSLSSVVTVPSSNFGTQTYTCNVDHKPSNTKVDKTVERKCCVECPPCPAPPVAGPSVFLFPPKPKDTLMISRTPEVTCVVVDVSHEDPEVQFNWYVDGVEVHNAKTKPREEQFNSTFRVVSVLTVVHQDWLNGKEYKCKVSNKGLPAPIEKTISKTKGQPREPQVYTLPPSREEMTKNQVSLTCLVKGFYPSDIAVEWESNGQPENNYKTTPPMLDSDGSFFLYSKLTVDKSRWQQGNVFSCSVMHEALHNHYTQKSLSLSPGK
light: DIQMTQTTSSLSASLGDRVTISCRASQDISNYLSWYQRKPDGAVKLLIYYTSRLHSGVPSRFSGSGSGADYSLTISNLEQEDIATYFCQQGITLPWTFGGGTKLEIKRTVAAPSVFIFPPSDEQLKSGTASVVCLLNNFYPREAKVQWKVDNALQSGNSQESVTEQDSKDSTYSLSSTLTLSKADYEKHKVYACEVTHQGLSSPVTKSFNRGEC
EC50 for activation of the NFκB-luciferase reporter gene (human OX40 on cells [1]): 0.0149 µg/mL

B6: MT01-C1 (antibody, human IgG1, kappa)
heavy: not shown
light: DIQMTQSPSSVSASVGDRVTITCRASQDISNYLSWYQQKPGGAVKLLIYYTSRLHSGVPSRFSGSGSGTDYTLTISSLQPEDFATYFCQQGITLPWTFGQGTKVEIKRTVAAPSVFIFPPSDEQLKSGTASVVCLLNNFYPREAKVQWKVDNALQSGNSQESVTEQDSKDSTYSLSSTLTLSKADYEKHKVYACEVTHQGLSSPVTKSFNRGEC
notes: also called humanized monoclonal antibody MT01-C1
EC50 (human OX40 protein [4]): 0.345 µg/mL | EC50 of activation on a cell line transfected stably by Jurkat-OX40-NFκB-luciferase reporter (human OX40 on cells [1]): 0.028 µg/mL

B7: MT01-C1(G2) (antibody, human IgG2, kappa)
heavy: EVQLVQSGAEVKKPGESLKISCKASGYTFTSYVMHWLRQMPGKGLEWMGYINPYNDGTKYNEKFKGQVTISSDKSISTAYLQWSSLKASDTAMYYCANYYGSKFAMDYWGQGTMVTVSSASTKGPSVFPLAPCSRSTSESTAALGCLVKDYFPEPVTVSWNSGALTSGVHTFPAVLQSSGLYSLSSVVTVPSSNFGTQTYTCNVDHKPSNTKVDKTVERKCCVECPPCPAPPVAGPSVFLFPPKPKDTLMISRTPEVTCVVVDVSHEDPEVQFNWYVDGVEVHNAKTKPREEQFNSTFRVVSVLTVVHQDWLNGKEYKCKVSNKGLPAPIEKTISKTKGQPREPQVYTLPPSREEMTKNQVSLTCLVKGFYPSDIAVEWESNGQPENNYKTTPPMLDSDGSFFLYSKLTVDKSRWQQGNVFSCSVMHEALHNHYTQKSLSLSPGK
light: DIQMTQSPSSVSASVGDRVTITCRASQDISNYLSWYQQKPGGAVKLLIYYTSRLHSGVPSRFSGSGSGTDYTLTISSLQPEDFATYFCQQGITLPWTFGQGTKVEIKRTVAAPSVFIFPPSDEQLKSGTASVVCLLNNFYPREAKVQWKVDNALQSGNSQESVTEQDSKDSTYSLSSTLTLSKADYEKHKVYACEVTHQGLSSPVTKSFNRGEC
EC50 (human OX40 protein [4]): 0.39 µg/mL | EC50 of activation on a cell line transfected stably by Jurkat-OX40-NFκB-luciferase reporter (human OX40 on cells [1]): 0.0434 µg/mL

B8: MT01-L2 (antibody, human IgG1, lambda)
heavy: not shown
light: QLVLTQSSSASFSLGASAKLTCTLSSQHSTYIIEWYQQQPLKPPKYVMELKKDGSHSTGEGIPDRFSGSSSGADRYLSISNIQPEDEAIYICGVGNTIKEQFVYVFGGGTKVTVLGQPKANPTVTLFPPSSEELQANKATLVCLISDFYPGAVTVAWKADGSPVKAGVETTKPSKQSNNKYAASSYLSLTPEQWKSHRSYSCQVTHEGSTVEKTVAPTECS
notes: also called human-mouse chimeric monoclonal antibody MT01-L2
EC50 for activation of the NFκB-luciferase reporter gene (human OX40 on cells [1]): 0.0841 µg/mL | IC50 of inhibition of the OX40L-induced activation of NFkB signaling pathway in Jurkat cells (human OX40 on cells [1]): 1.59 µg/mL | binding result (mouse OX40 on CHO cells): no binding | EC50 (human OX40 protein [2]): 0.208 µg/mL | EC50 (human OX40 on cells [3]): 2.42 µg/mL

B9: MT01-L2(G2) (antibody, human IgG2, lambda)
heavy: EVQLVESGGGLVQPKGSLSLSCAASGFTFNTYAMNWVRQAPGKGLEWVARIRSKSNNYATYYADSVKDRFTISRDDSQSMLYLQMTNLKTEDTAMYHCVRSLGRAFVYWGQGTLVTVSSASTKGPSVFPLAPCSRSTSESTAALGCLVKDYFPEPVTVSWNSGALTSGVHTFPAVLQSSGLYSLSSVVTVPSSNFGTQTYTCNVDHKPSNTKVDKTVERKCCVECPPCPAPPVAGPSVFLFPPKPKDTLMISRTPEVTCVVVDVSHEDPEVQFNWYVDGVEVHNAKTKPREEQFNSTFRVVSVLTVVHQDWLNGKEYKCKVSNKGLPAPIEKTISKTKGQPREPQVYTLPPSREEMTKNQVSLTCLVKGFYPSDIAVEWESNGQPENNYKTTPPMLDSDGSFFLYSKLTVDKSRWQQGNVFSCSVMHEALHNHYTQKSLSLSPGK
light: QLVLTQSSSASFSLGASAKLTCTLSSQHSTYIIEWYQQQPLKPPKYVMELKKDGSHSTGEGIPDRFSGSSSGADRYLSISNIQPEDEAIYICGVGNTIKEQFVYVFGGGTKVTVLGQPKANPTVTLFPPSSEELQANKATLVCLISDFYPGAVTVAWKADGSPVKAGVETTKPSKQSNNKYAASSYLSLTPEQWKSHRSYSCQVTHEGSTVEKTVAPTECS
EC50 for activation of the NFκB-luciferase reporter gene (human OX40 on cells [1]): 0.118 µg/mL
